B1: CLEAR-box (FA) (dsDNA)
DNA 1: GAGATCACGTGATGAC
DNA 2: GTCATCACGTGATCTC
B2: M-box (dsDNA)
DNA 1: GAGATCATGTGTTGAC
DNA 2: GTCAACACATGATCTC
B3: E-box (dsDNA)
DNA 1: GAGACCACGTGTTGAC
DNA 2: GTCAACACGTGGTCTC

biological target: MITF (UniProt Q08874 287-403); assay: fluorescence anisotropy; FA: 0.5 nM dsDNA, 10 mM Tris/HCl pH 7.5, 300 mM NaCl, 0.01% Triton X-100, 0.1 mg/mL BSA, 25 °C, 5 min; fit one MITF dimer per dsDNA. Crystals: 0.9 M sodium malonate pH 5.5; conditions: protein: recombinant; chain copies: 2; label: 3' fluorescein on strand 1; blunt
Sequence (Q08874 287-403): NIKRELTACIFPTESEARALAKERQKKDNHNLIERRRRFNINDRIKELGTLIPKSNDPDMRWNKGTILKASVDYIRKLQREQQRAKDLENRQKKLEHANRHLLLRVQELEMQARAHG

First: B1
Second: B2
The Kd of the first is 2.9-fold lower: 0.9 ± 0.3 nM for the first, 2.6 ± 0.4 nM for the second.

Work on B3 yielded a Kd of 1.5 ± 0.3 nM.

Source: PMC6355916, “MITF has a central role in regulating starvation-induced autophagy in melanoma”
